Experimental data as given in the DeepSol protein solubility set.

Experiment: soluble on expression in E. coli; label from the status in PepcDB or PDB records
For “MGSDKIHHHHHHMKSKGSRLSTDCPVEFPKIVSGFAEEVKIRRQSSQGQYAVDSHPPKSPELKHRRQRSSSFVNGKCRNRDLPLLDNKKAQEINTNSHGQDIGIKNLPRQRELLNAKNGIDFTLMVAGQSGLGKTTFINSLFSTSLIDDDIKENKPIIRYKSIVEGDGTHLNFNVIDTPGFGNNMDNAFTWRTMVNYIDEEIRSYIFQEEQPDRTKMVDNRVHCCLYFLRPSNKGIDTLDVVTMKKLAKRVNLIPVIAKSDLLTKEELKNFKTQVREIIRVQDIPVCFFFGDEVLNATQDIFQKYPFSIIASNEYIFNEKGEKVKGRQYKWGAVDIENEKYCDFKILQKTIFDWNLIDLVESTEDYYEKCRSEMLRTRLLKARDCLTTKSVDITEEQRKFLEEEMNFDEIEENKLKNYKCYEIINKTVMDKVATEWDPEFITRQLEAKKKFNELSNREISKFRDWKKSLFMEQENFNQEIEQLNHKLENLQLECQDLEYKLLIGKSSNSHSTDSATLVNVHIKR”, the “soluble on expression in E. coli” value was “not soluble”.
In the case of “MGSDKIHHHHHHMKSRFLLKIFIFLAVFGVDSVRAADCTEKTFKTGTVCVCSLDSCDEIPPLDITMGQAALYTTSHTGARLHRDVIYATDTEPFGTLHMTIDSSKKYQTIQGFGSTFSDASGANLKSLPDKLSDLIMKQYFSDTGLNLQFGRVPIASTDFSGRVYSYNDVANDYSMQNFNLTKEDFQWKIPYIKNAQKYNPNLKLFAAPWAAPGWLKTTKEMTGPGALNGKAGDNYHQAYAKYFVRFLEEYGKSGISFWGLSTQNQPTLGSDKKNKIQSTLFTAETQRDFIKTDLGPALAASSSGKDVKLLILDDNRGNLPKWADTVLNDMDAAKYVGGIGVHAYQDGETDNHLDETHKKHPNFFILGTEASEGYGSKDTHVDYGNWDRAADTASDILDNMNNWMTGWTERNLILDALGGPSWVSDYTDAPVIAFPAMAQFYKQPMFYAIAHFSHFIKPGAVRIDHSLNVIELEVETTAFLNPDGSKVIVMLNKGSLVSTEHTVVVQDAADSRNHYHFTLPHRAITTLYIQTSQF”, the “soluble on expression in E. coli” value was “not soluble”.
With “MGSDKIHHHHHHMKTFHLTTQSRDEMVDITSQIETWIRETGVTNGVAIVSSLHTTAGITVNENADPDVKRDMIMRLDEVYPWHHENDRHMEGNTAAHLKTSTVGHAQTLIISEGRLVLGTWQGVYFCEFDGPRTNRKFVVKLLTD” the “soluble on expression in E. coli” value was “soluble”.
For “MGSDKIHHHHHHMKTLIKNVHILTMDEQFSEIKAGYLVIEEDTIVELAPMTTLDEKRMAANQVIDGQNGILMPGMINTHTHVGMIPFRSLGDDVPDRLRRFLFPLEQFMTKELVGCSSDYAIAEMLLSGITSFCDMYYFEDEIAKSCEKMSVRALLGETIIDMPTCDSPEPSGGLFYAETFIRKWQGHPLITPMLAPHAPNTNSPEVLAKIIELSRQYQVPVTMHVAEMTYEMAEFEKAYQKTPIAFLEELGYLSEPFILAHCILATDEDLASLAATNGKARVAHCIGANTKSAKGVAPIKQMLDQGIIVGLGTDGPSSGNTLDLFTQMRMVANFHKTAHQDRSLFPAKEIVYLATMGGAKTLGLAEQVGSLEVDKKADITLIETQSVNMFPIFDAYSALVYSANASNVEAVWVNGQQLVANKELQQANLKEIKEKLYQAMNTFVKEAKKRAAL”, the “soluble on expression in E. coli” value was “not soluble”.
In the case of “MGSDKIHHHHHHMKTTSPSSYDEMLNADGSVRSAYAGYCKWYDEQPPDLLRRKGSEAEAFFRRTGITFNVYGNEDAEERLIPFDMVPRIITAQQWRKLSRGIEQRVRALNAFLHDLYHRQEIVRSGRLPVRLLKGNEAFLPEMVGFTPPGGVYTHIVGIDLVRTGEDDFMVLEDNARTPSGVSYMLENRETMMAMFPELFTRVRVREVSDYPRRLARSLAACAPPACDGKKPVVAVLTPGIYNSAYFEHAFLADQMGAELVEGSDLRVENGRIAMRTTRGYQPIDVLYRRVDDEYLDPLSFNPGSVLGVSGIMDVYRSGGITIANAPGTGIADDKAIYSFMPEIVEFYTGEKPILQNVPTWRCAEPDALAYVLDNLAELVVKEVHGSGGYGMLIGPTSSRKELAAFEAKLRARPENYIAQPTLSLSTVPILTKAGLAPRHVDLRPFVLVSPNGIDITPGGLTRVALKKGSLVVNSSQGGGTKDSWVLDD”, the “soluble on expression in E. coli” value was “not soluble”.
With “MGSDKIHHHHHHMKTVMLMLTSLLMAGCSVLGKREAAEPPYELLKHDGAFEVRRYGPMVIAETILDEKSYSAASGKGFNRLAGYIFGKNRSKTSISMTAPVLQERSSEKISMTAPVLQQPQKGGWSMAFVLPEGFTLQSAPEPLDPEVKLRELPPSTIAVVTFSGLHSAANLEKYSRQLQAWLKKQGYRALSEPKLASYDPPWTIPFLRRNEVQIRIEPDHGESGKE” the “soluble on expression in E. coli” value was “not soluble”.
For “MGSDKIHHHHHHMKVAYLSSAYLAPVEYYSKLLNYDKIFIEQHDHYMKQTYRNRCTIAGPEGELALSIPIVKPEEPKCPMKDIRISDHGNWRHLHWNAIESAYNSTPFFEYYKDDFRPFYEKKYEFLTDFNEELCRLVCELIDIQPAIERTKEYKTDFAPNEIDFREAIHPKKDFHRTDPEFIPQPYYQVFEARYGFLPNLSIIDLLFNMGPESLLILQKTCADSQ”, the “soluble on expression in E. coli” value was “not soluble”.
In the case of “MGSDKIHHHHHHMKVIIEADGGSRGNPGIAGSGTLIYNADRSQVLKEYSYVVGKATNNVAEYHGLLNGLRGAAELGATEVSVRMDSKLVVEQMSGRWKIKHPDMKELALECKKVASSIGSVSYEWIPRSENSHADALANKAMDALAEGAAVGFLELEEPAAKTDSEEKVVETATSPAVWNGATTQATRFVLLRHGQTAMSAARQYSGRSNPELTSVGLEQARRAAAFIGRRGGIDAIVASPLQRCQQTAHEVSEQLGGMPVRTIDGLIEMDFGQWDGLSFSQAHEADPELHSAWLDDSRTAPPGGESLQQVHRRVKKVREELERKYAGKTIVVVSHVTPIKSILRQALDASASMFHRMHLDLASISVAEFYSDGPTCVRSVNDTHYLYG”, the “soluble on expression in E. coli” value was “not soluble”.
For “MGSDKIHHHHHHMKVLFTFGGIPHYLNAMLNRLQAKGVEITVVSPKKGNTTIGKGVKMVEGGTYKHLTTPEKKMFYGKSAFPALPEIIAEEKPDIVVVGWPYFLQVFFQPALRKAMKSCNAKLVIREIPFQTPPYGKIKEYFKANPMHDEGMRLLSKGIGFYLRQWITARIRKYCYAQAAGTLNYSTAAYDILPSYGVKKEQIHVTYNSTDTEALLKEKESVLASPSILPPCDRRLLHIGRLVKWKRVDLLIEAFRKVATDYPEAELVIVGDGPELDNLRQQANDLQLADSIRFIGAVYDPKTLGAYMNESSIYVLAGMGGLSINDAMTYGMPVLCAVCDSTERDLVMEGKNGYFFKDGDADSLAGRIREMFESPERCKEMGKESERMIREKINMETVSERYLKAFQEILRLTHLRDSGN”, the “soluble on expression in E. coli” value was “not soluble”.
In the case of “MGSDKIHHHHHHMKVVFVSYEVFPFAKVGGLADVAGTLPKYLKKHGVDVTIVMPKHRIVEKNAEKFGYEIKKVAESLSVSHVKTDQKFDIYESVLPGSDVKTYFVANDYYFSAEDVYAGPDLGEQAIFFCAATLDLVKHLDLKPDIVHVNDWQTALIPVYLKTVYRDDPYFSRTATVLTIHNLGYQGVFDPKYLSFAGLPDYVYTIDGLEFYGQLNFLKGGIVFSDVINTVSPTYAEEIQTEEYGEKLDGVLRMRSKDLYGILNGIDYELYNPATDRYIYVNYDVNRLELKWENKVKLQEELGLPVNKETAVAGLISRLVPQKGLDLLVDVMDYLTLFDLQIVVLGTGDEQYENAFRKFQERYPDKVSANIKFDVELAQKIYAGADIFLMPSRYEPCGLGQMFSMRYGTIPVVRYTGGLADTVKEYDPQSMEGTGFGFKKYDSAHLLKAVSKALHFYYREKDHWRRIMTNAMNTDLSWDRSAKEYVDLYKKALAKVGR”, the “soluble on expression in E. coli” value was “not soluble”.
In the case of “MGSDKIHHHHHHMKVYLSFDYELYFGAKSGSADACIIEPAKLLLEIAARHAVHLNFFIDSGYLLALEKYSKRYPSVAYEKQQVFKQIRELAAAGHDCQLHIHPHWEDSYYDGNGWKMNTNRYRLDHFPDAQIEQIVQSYYDITKDIAGKAPIAYRAGGWCMPPWNKVSAVFKKLGIWIDSTVYEKGYLQEGQIAFDFRKAPASDQWMFETDPVTEAPFGYFLELPISSISCSPLFFWNLYVRGRLNRSLHAGMGDGLPMAQPGTKKKLLTRYTQQALSCDGYYASLLTEEFYKRKAKGEDTMVVIGHPKAQSKFSVQALDTFISTVKDSAAFARYSDLQKD”, the “soluble on expression in E. coli” value was “not soluble”.
For “MGSDKIHHHHHHMKWLLFPARIVARTRPNLFSLYRRSVSQYLRPRTIQNLQSMAQTPELKTKLFKPLVWIDCEMTGLDHVNDRIIEICCIITDGHLAPVKAADGQGDSHYESVIHYGPEVMNKMNEWCIEHHGNSGLTAKVLASEKTLAQVEDELLEYIQRYIPDKNVGVLAGNSVHMDRLFMVREFPKVIDHLFYRIVDVSSIMEVARRHNPALQARNPKKEAAHTAYSDIKESIAQLQWYMDNYLKPPQETESVESIGSEQPESPSSSTSSLKRQRTDF”, the “soluble on expression in E. coli” value was “not soluble”.
For “MGSDKIHHHHHHMKYLVSIDGGGTKTKFCVSDLDGNILKEHTTGSTNYKSVGIKKTYENINNGFKKILKDLYIDYDDIEYTVFGISGCDSPNDYKIIMDEILKIGINKEKIYLANDAVLAFYAQADSPGLVIVAGTGSIILGIKEDGEIYRVGGWGYNFSDLGSGYDIGRKLLKKVLLYCDECHEYSDLFSCVLDFFGANSFEQLAYMITDINDNVEIANLASLVIDCAEQGDKLAIEILRESSTELSKLAQVILRKISNPMKMDKSEINIVLSGGTLNKTVYVQMLMNNLKTENTDKNLKFISQENQPVYGGIRLAMALANRRVKHG”, the “soluble on expression in E. coli” value was “not soluble”.
With “MGSDKIHHHHHHMKYVLIQATDNGILRRAECGGAVTALFKYLLDKKLVDGVLALKRGEDVYDGIPTFITNSNELVETAGSLHCAPTNFGKLIAKYLADKKIAVPAKPCDAMAIRELAKLNQINLDNVYMIGLNCGGTISPITAMKMIELFYEVNPLDVVKEEIDKGKFIIELKNGEHKAVKIEELEEKGFGRRKNCQRCEIMIPRMADLACGNWGAEKGWTFVEICSERGRKLVEDAEKDGYIKIKQPSEKAIQVREKIESIMIKLAKKFQKKHLEEEYPSLEKWKKYWNRCIKCYGCRDNCPLCFCVECSLEKDYIEEKGKIPPNPLIFQGIRLSHISQSCINCGQCEDACPMDIPLAYIFHRMQLKIRDTLGYIPGVDNSLPPLFNIER” the “soluble on expression in E. coli” value was “not soluble”.
With “MGSDKIHHHHHHMLDDHTQLEFPASGMTELPLIWQPQVIRCKAAGPGGRPLLVLLDTGTDPSAIDLTLARRLDLRLGDFALGSDATCDTVPFTETVLPWLRLGEVMLRNLYLMAVDLRQMPFPVDLVLGYNVLHRLNLTIDYAGQTVRLCHPDLAPPPPGAEGASVPLRFFEHFPALPAQIIAPSGATHDVILTIDTGSNGALTVSRDLAASLHLDLHTVQAATGHGFAAATPVSRGFTVDLQLGPFRLPAVEVDVPATSHGDLGRQGRANVGNRLLSRFRRLTLDYRREVCILDR” the “soluble on expression in E. coli” value was “not soluble”.
For “MGSDKIHHHHHHMLDKLWKKKNSMMVGIDIGSHSAKAVLLGQGNEGFIIEDFAIEPMPRGSVVDREIQDIEAVGAVIAKLRKKISAKATDAAAAVSGQTVITKLIYMDVALTEDELASQIEIEADSLIPFPLDEVSLDFETLDVNESDPSKVNVLLSAARTESIEARVAALDAGDFHAKVIDVESYAVGRAYDLCLTQLPDDAKDKVVAIVDIGSTVTLFSATDAGKHIYSRDQMFGGEQYTRSIVSYYNKSFEQAEEAKTSNDLPPNYTFEVLAPFHTVLMQQIRRAIQMFLTTSGQNKVDYLLISGGTAALEGIESLLTEELGIHTVIANPFNDMSCGESIEQAELANVAPQLMVATGLALRSFTPWHI”, the “soluble on expression in E. coli” value was “not soluble”.
With “MGSDKIHHHHHHMLDLGCGDGTLLHYLRDKLDIHGYGVEIDAHNILACMKNGINVIQNDLEAGLSEFEGESFDYVILSQTLQAMKNTEYIIREMLRVGKEGIVSFPNFGYWKNRIQVAGGHMPVSPTLPYQWYDTPNVHLCTLHDFEQLCQQHRVNILERRVMNNDKKVTFLPNLFGILAFYRFSHAA” the “soluble on expression in E. coli” value was “not soluble”.
